US20220259318A1 (Hoffmann-La Roche, published 2022)
Substitutions are numbered along the chain they refer to. Several values for one entry are separate records, joined by “and”; a condition that tells them apart may be missing. Identical values can stand only once. Like-named read-outs stand apart in the source and are kept apart here. Each block holds one binder with its values, some of them ahead of it.

How the values were obtained:
human GPRC5D [1] = molecular target: T1, human GPRC5D (human, UniProt Q9NZD1 1-345); assay: cell-based or functional assay
human GPRC5D [2] = molecular target: T1, human GPRC5D; assay: cell-based or functional assay; remark: listed apart in the source
human GPRC5D [3] = molecular target: T1, human GPRC5D; assay: cell-based or functional assay; remark: listed apart in the source
human GPRC5D [4] = molecular target: T1, human GPRC5D; assay: cell-based or functional assay; remark: listed apart in the source
human GPRC5D [5] = molecular target: T1, human GPRC5D; assay: cell-based or functional assay; remark: listed apart in the source
human GPRC5D [6] = molecular target: T1, human GPRC5D; assay: cell ELISA, CHO hu GPRC5D (EC/IC50 rel)
Summary of the method: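 Stably transfected CHO cells seeded overnight, then incubated 2 h at 4° C with antibody IgGs in 15-point 1:3 dilutions from 30 μg/ml. Cells fixed with 0.05% glutaraldehyde; binding detected with HRP anti-human Ig and TMB, absorbance at 370/492 nm.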

human GPRC5D [7] = molecular target: T1, human GPRC5D; assay: cell-based or functional assay; remark: listed apart in the source
human GPRC5D [8] = molecular target: T1, human GPRC5D; assay: cell-based or functional assay; remark: listed apart in the source

T1 sequence (Q9NZD1 whole entry): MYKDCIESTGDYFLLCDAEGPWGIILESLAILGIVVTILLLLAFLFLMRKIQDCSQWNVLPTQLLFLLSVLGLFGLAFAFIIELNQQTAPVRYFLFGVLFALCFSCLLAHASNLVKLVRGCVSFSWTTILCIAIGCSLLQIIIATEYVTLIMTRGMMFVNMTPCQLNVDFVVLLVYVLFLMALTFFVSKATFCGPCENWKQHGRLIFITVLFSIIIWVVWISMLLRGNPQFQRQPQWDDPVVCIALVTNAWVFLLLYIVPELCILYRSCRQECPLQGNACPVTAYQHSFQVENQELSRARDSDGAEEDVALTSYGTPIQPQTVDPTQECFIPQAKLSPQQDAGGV

B1: ET150-5-TCB (bispecific antibody, human IgG1, lambda, L234A L235A)
light 1: QSVLTQPPSASGTPGQRVTISCSGSRSNVGGNYVFWYQQVPGATPKLLIYRSNQRPSGVPDRFAGSKSGSSASLAISGLRSEDEADYYCATWDDSLSGFVFGTGTKVTVLGQPKAAPSVTLFPPSSKKLQANKATLVCLISDFYPGAVTVAWKADSSPVKAGVETTTPSKQSNNKYAASSYLSLTPEQWKSHRSYSCQVTHEGSTVEKTVAPTECS
light 2: EVQLLESGGGLVQPGGSLRLSCAASGFTFSTYAMNWVRQAPGKGLEWVSRIRSKYNNYATYYADSVKGRFTISRDDSKNTLYLQMNSLRAEDTAVYYCVRHGNFGNSYVSWFAYWGQGTLVTVSSASVAAPSVFIFPPSDEQLKSGTASVVCLLNNFYPREAKVQWKVDNALQSGNSQESVTEQDSKDSTYSLSSTLTLSKADYEKHKVYACEVTHQGLSSPVTKSFNRGEC
heavy 1: EVQLVESGGGLVKPGGSLRLSCAASGFTFSDYYMSWIRQAPGKGLEWVSYISSSGSTIYYADSVKGRFTISRDNAKNSLYLQMNSLRAEDTAVYYCARGYGKAYDQWGQGTLVTVSSASTKGPSVFPLAPSSKSTSGGTAALGCLVEDYFPEPVTVSWNSGALTSGVHTFPAVLQSSGLYSLSSVVTVPSSSLGTQTYICNVNHKPSNTKVDEKVEPKSCDKTHTCPPCPAPEAAGGPSVFLFPPKPKDTLMISRTPEVTCVVVDVSHEDPEVKFNWYVDGVEVHNAKTKPREEQYNSTYRVVSVLTVLHQDWLNGKEYKCKVSNKALGAPIEKTISKAKGQPREPQVCTLPPSRDELTKNQVSLSCAVKGFYPSDIAVEWESNGQPENNYKTTPPVLDSDGSFFLVSKLTVDKSRWQQGNVFSCSVMHEALHNHYTQKSLSLSPGK
heavy 2: not shown
- EC50 of anti-GPRC5D-TCB mediated killing, AMO-1 (human GPRC5D [1]): 0.0835 nM
- EC50 of anti-GPRC5D-TCB mediated killing, L363 (human GPRC5D [1]): 0.768 nM
- EC50 of anti-GPRC5D-TCB mediated killing, NCI-H929 (human GPRC5D [1]): 0.833 nM
- EC50 of anti-GPRC5D-TCB mediated killing, RPMI-8226 (human GPRC5D [1]): 0.797 nM

B2: B72-TCB (bispecific antibody, human IgG1, kappa, L234A L235A)
heavy 1: not shown
light 1: B1 light 2 with L5V, S30N, S49A, D64A, T80S, R89K, A90T, V99A
heavy 2: QVQLVQSGAEVKKPGASVKVSCKASGYSFTGYTMNWVRQAPGQGLEWMGLINPYNSDTNYAQKLQGRVTMTTDTSTSTAYMELRSLRSDDTAVYYCARVALRVALDYWGQGTLVTVSSASTKGPSVFPLAPSSKSTSGGTAALGCLVEDYFPEPVTVSWNSGALTSGVHTFPAVLQSSGLYSLSSVVTVPSSSLGTQTYICNVNHKPSNTKVDEKVEPKSCDKTHTCPPCPAPEAAGGPSVFLFPPKPKDTLMISRTPEVTCVVVDVSHEDPEVKFNWYVDGVEVHNAKTKPREEQYNSTYRVVSVLTVLHQDWLNGKEYKCKVSNKALGAPIEKTISKAKGQPREPQVCTLPPSRDELTKNQVSLSCAVKGFYPSDIAVEWESNGQPENNYKTTPPVLDSDGSFFLVSKLTVDKSRWQQGNVFSCSVMHEALHNHYTQKSLSLSPGK
light 2: DIQMTQSPSSLSASVGDRVTITCKASQNVATHVGWYQQKPGKAPKRLIYSASYRYSGVPSRFSGSGSGTEFTLTISNLQPEDFATYYCQQYNRYPYTFGQGTKLEIKRTVAAPSVFIFPPSDRKLKSGTASVVCLLNNFYPREAKVQWKVDNALQSGNSQESVTEQDSKDSTYSLSSTLTLSKADYEKHKVYACEVTHQGLSSPVTKSFNRGEC
- AUC, TCB-mediated tumor cell lysis, AMO-1 (human GPRC5D [2]): 5.45e+07
- AUC, TCB-mediated tumor cell lysis, IM-9 (human GPRC5D [2]): 8.6e+06
- AUC, TCB-mediated tumor cell lysis, LP-1 (human GPRC5D [2]): 1.15e+07
- AUC, TCB-mediated tumor cell lysis, NCI-H929 (human GPRC5D [2]): 1.09e+07
- EC50 (pM), TCB-mediated tumor cell lysis, AMO-1 (human GPRC5D [3]): 79.9 pM
- EC50 (pM), TCB-mediated tumor cell lysis, IM-9 (human GPRC5D [3]): 198 pM
- EC50 (pM), TCB-mediated tumor cell lysis, LP-1 (human GPRC5D [3]): 49 pM
- EC50 (pM), TCB-mediated tumor cell lysis, NCI-H929 (human GPRC5D [3]): 26.9 pM
- EC50 in vitro killing assay, AMO-1 (human GPRC5D [4]): 0.109 nM
- EC50 in vitro killing assay, EJM (human GPRC5D [4]): 0.06 nM
- EC50 in vitro killing assay, L363 (human GPRC5D [4]): 0.058 nM
- EC50 in vitro killing assay, MOLP-2 (human GPRC5D [4]): 0.124 nM
- EC50 in vitro killing assay, NCI-H929 (human GPRC5D [4]): 0.058 nM
- EC50 in vitro killing assay, OPM-2 (human GPRC5D [4]): 0.171 nM
- EC50 in vitro killing assay, RPMI (human GPRC5D [4]): 0.193 nM

B3: 5F11_P1AE5741 (antibody, V domains shown)
VH: EVQLVESGGGVVQPGRSLRLSCAASGFSFSNYGMAWVRQAPGKGLEWVASISTGGGNTYYRDSVKGRFTISRDNAKNTLYLQMNSLRAEDTAVYYCTRHDRGGLYWGQGTMVTVSS
VL: DIVMTQSPLSLPVTPGEPASISCRSSKSLLHSNGITYVYWYLQKPGQSPQLLIYRMSNRASGVPDRFSGSGSGTDFTLKISRVEAEDVGVYHCGQLLENPYTFGQGTKLEIK
notes: Humanized 5F11 IgG; PGLALA Fc implied by the CAR-J assay; also called 5F11_VH1b + 5F11_VL2a
- EC50 values of CAR-J activation (human GPRC5D [5]): 1.4 ng/mL
- EC50 (human GPRC5D [6]): 0.0067 µg/mL and 0.04 nM
- CAR-J2 EC50 [ng/mL] (PGLALA-CAR-J activation, L363 target cells) (human GPRC5D [7]): 1.4 ng/mL

B5: 5F11_P1AE5745 (antibody, V domains shown)
VH: B3 VH with E1Q, R61A, A75S
VL: B3 VL with Q47K, L51V, R59L
notes: Humanized 5F11 IgG; PGLALA Fc implied by the CAR-J assay; also called 5F11_VH1c + 5F11_VL1b
- EC50 values of CAR-J activation (human GPRC5D [5]): 1.62 ng/mL
- EC50 (human GPRC5D [6]): 0.0097 µg/mL and 0.06 nM
- CAR-J2 EC50 [ng/mL] (PGLALA-CAR-J activation, L363 target cells) (human GPRC5D [7]): 1.62 ng/mL

B6: P1AE5744 (antibody, V domains shown)
VH: B3 VH with E1Q, R61A, A75S
VL: B3 VL with L51V, R59L
notes: Humanized 5F11 IgG; PGLALA Fc implied by the CAR-J assay; also called 5F11_VH1c + 5F11_VL1a
- EC50 values of CAR-J activation (human GPRC5D [5]): 3.63 ng/mL
- EC50 (human GPRC5D [6]): 0.0086 µg/mL and 0.06 nM
- CAR-J2 EC50 [ng/mL] (PGLALA-CAR-J activation, L363 target cells) (human GPRC5D [7]): 3.63 ng/mL

B8: P1AE5730 (antibody, V domains shown)
VH: ELQLLESGGGLVQPGGSLRLSCAASGFTFSKYAMAWVRQAPGKGLEWVASISTGGVNTYYADSVKGRFTISRDNAKNTLYLQMNSLRAEDTAVYYCATHTGDYFDYWGQGTMVTVSS
VL: DIQMTQSPSSLSASVGDRVTITCRASQSVSISGINLMNWYQQKPGKQPKLLIYHASILASGVPSRFSGSGSGTDFTLTISSLQPEDFATYYCQQTRESPLTFGQGTRLEIK
notes: Humanized 5E11 IgG; PGLALA Fc implied by the CAR-J assay; also called 5E11_VH1d + 5E11_VL3a
- EC50 values of CAR-J activation (human GPRC5D [5]): 3.5 ng/mL
- CAR-J2 EC50 [ng/mL] (PGLALA-CAR-J activation, L363 target cells) (human GPRC5D [8]): 3.5 ng/mL
- EC50 (human GPRC5D [6]): 0.008 µg/mL and 0.05 nM

Now from value to binder:

- EC50 values of CAR-J activation (human GPRC5D [5]): 5.47 ng/mL
- EC50 (human GPRC5D [6]): 0.006 µg/mL and 0.04 nM
- CAR-J2 EC50 [ng/mL] (PGLALA-CAR-J activation, L363 target cells) (human GPRC5D [7]): 5.47 ng/mL
B4: P1AE5763 (antibody, V domains shown)
VH: B3 VH with V11L, R16G, R61A
VL: DIVMTQSPDSLAVSLGERATINCKSSKSLLHSNGITYVYWYQQKPGQPPKLLIYRMSNLASGVPDRFSGSGSGTDFTLTISSLQAEDVAVYHCGQLLENPYTFGQGTKLEIK
notes: Humanized 5F11 IgG; PGLALA Fc implied by the CAR-J assay; also called 5F11_VH2d + 5F11_VL2b

- EC50 values of CAR-J activation (human GPRC5D [5]): 3.7 ng/mL
- CAR-J2 EC50 [ng/mL] (PGLALA-CAR-J activation, L363 target cells) (human GPRC5D [8]): 3.7 ng/mL
- EC50 (human GPRC5D [6]): 0.006 µg/mL and 0.04 nM
B7: 5E11_P1AE5723 (antibody, V domains shown)
VH: B8 VH with L2V, A75S
VL: EIVLTQSPGTLSLSPGERATLSCRASQSVSISGINLMNWYQQKPGQQPKLLIYHASILASGIPDRFSGSGSGTDFTLTISRLEPEDFAVYYCQQTRESPLTFGQGTRLEIK
notes: Humanized 5E11 IgG; PGLALA Fc implied by the CAR-J assay; also called 5E11_VH1c + 5E11_VL2b

- EC50 values of CAR-J activation (human GPRC5D [5]): 105 ng/mL
- CAR-J2 EC50 [ng/mL] (PGLALA-CAR-J activation, L363 target cells) (human GPRC5D [8]): 105 ng/mL
- EC50 (human GPRC5D [6]): 0.0121 µg/mL and 0.08 nM
B9: P1AE5718 (antibody, V domains shown)
VH: B8 VH with A61R, G66A
VL: B8 VL
notes: Humanized 5E11 IgG; PGLALA Fc implied by the CAR-J assay; also called 5E11_VH1b + 5E11_VL3a

- EC50 values of CAR-J activation (human GPRC5D [5]): 5.6 ng/mL
- CAR-J2 EC50 [ng/mL] (PGLALA-CAR-J activation, L363 target cells) (human GPRC5D [8]): 5.6 ng/mL
- EC50 (human GPRC5D [6]): 0.0079 µg/mL and 0.05 nM
B10: 5E11_P1AE5728 (antibody, V domains shown)
VH: B8 VH
VL: B7 VL with K49R
notes: Humanized 5E11 IgG; PGLALA Fc implied by the CAR-J assay; also called 5E11_VH1d + 5E11_VL2a
